From patent US20210079102A1 (DRAGONFLY THERAPEUTICS, published 2021)

Columns and labels:
[1] = molecular target: T1, CD33 expressed on MV4-11 human AML cells (human, UniProt P20138 18-364); experiment: flow cytometry on MV4-11 cells, FOB of MFI
T1 construct: whole, on cells; also called cell-expressed CD33
Procedure: Human AML cell line MV4-11 expressing CD33 was used to assay the binding of TriNKETs to the tumor associated antigen. TriNKETs and the parental anti-CD33 monoclonal antibody were incubated with the cells, and the binding was detected using fluorophore-conjugated anti-human IgG secondary antibodies. Cells were analyzed by flow cytometry, and fold-over-background (FOB) was calculated using the mean fluorescence intensity (MFI) from TriNKETs and the parental monoclonal anti-CD33 antibody normalized to secondary antibody controls.

[2] = molecular target: T2, human NKG2D expressed on EL4 cells (human, UniProt P26718 1-216); experiment: flow cytometry on EL4 cells expressing human NKG2D, anti-human IgG secondary, FOB of MFI
T2 construct: whole, on cells; also called extracellular NKG2D expressed on EL4 cells; cell-expressed human NKG2D
T2 sequence (looked up): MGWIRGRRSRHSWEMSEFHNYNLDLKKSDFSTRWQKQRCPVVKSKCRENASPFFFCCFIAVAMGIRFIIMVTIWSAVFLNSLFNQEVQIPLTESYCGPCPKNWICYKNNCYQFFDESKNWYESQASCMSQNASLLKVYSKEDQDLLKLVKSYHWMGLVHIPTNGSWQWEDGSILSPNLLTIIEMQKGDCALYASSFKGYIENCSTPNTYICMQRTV
Procedure: EL4 mouse lymphoma cell lines were engineered to express human NKG2D. […] The binding of the multi-specific binding proteins to NKG2D was detected using fluorophore-conjugated anti-human IgG secondary antibodies. Cells were analyzed by flow cytometry, and fold-over-background (FOB) was calculated using the mean fluorescence intensity (MFI) of NKG2D-expressing cells compared to parental EL4 cells.

[3] = molecular target: T3, murine NKG2D overexpressed on EL4 cells (EL4-mNKG2D) (mouse, UniProt O54709 1-232); experiment: flow cytometry on EL4-mNKG2D cells, 60 ug/mL with four-fold dilutions, goat anti-mouse PE secondary
T3 construct: whole, on cells; also called EL4-mNKG2D cells
T3 sequence (looked up): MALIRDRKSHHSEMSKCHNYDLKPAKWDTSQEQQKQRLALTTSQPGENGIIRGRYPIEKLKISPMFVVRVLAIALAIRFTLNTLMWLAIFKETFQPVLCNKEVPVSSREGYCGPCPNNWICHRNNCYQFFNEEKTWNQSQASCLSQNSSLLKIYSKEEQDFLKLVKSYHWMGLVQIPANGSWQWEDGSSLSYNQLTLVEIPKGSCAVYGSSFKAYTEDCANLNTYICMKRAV
Procedure: (§1) 60 μg/mL of indicated antibodies with four-fold dilutions were added to 2×10⁵ B16F10 tumor cells (FIG. 58A) or EL4-mNKG2D cells (FIG. 58B). Binding was assessed using a goat anti-mouse PE secondary antibody followed by flow cytometric analysis.

[4] = molecular target: T4, Tyrp-1 on B16F10 melanoma cells (UniProt P07147 25-537, limits assumed); experiment: flow cytometry on B16F10 tumor cells, 60 ug/mL with four-fold dilutions, goat anti-mouse PE secondary
T4 construct: whole, on cells; also called Tyrp-1-positive B16F10 melanoma cells
Procedure: as §1

T1 sequence (P20138 18-364): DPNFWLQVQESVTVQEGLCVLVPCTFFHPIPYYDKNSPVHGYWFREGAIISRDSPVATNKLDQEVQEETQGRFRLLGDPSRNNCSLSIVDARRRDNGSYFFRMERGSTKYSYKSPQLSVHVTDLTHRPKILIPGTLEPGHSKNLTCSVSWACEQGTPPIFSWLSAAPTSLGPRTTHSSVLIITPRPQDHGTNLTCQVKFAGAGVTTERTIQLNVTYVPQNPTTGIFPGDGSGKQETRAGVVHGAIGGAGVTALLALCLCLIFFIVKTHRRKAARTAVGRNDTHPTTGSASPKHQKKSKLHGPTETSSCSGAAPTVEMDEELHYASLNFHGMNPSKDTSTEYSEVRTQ

B1: CD33-TriNKET-C26 (ADI-28226 and a CD33-binding domain) (bispecific antibody, V domains shown)
VH 1: QVQLQQWGAGLLKPSETLSLTCAVYGGSFSGYYWSWIRQPPGKGLEWIGEIDHSGSTNYNPSLKSRVTISVDTSKNQFSLKLSSVTAADTAVYYCARARGPWSFDPWGQGTLVTVSS
VL 1: DIQMTQSPSTLSASVGDRVTITCRASQSISSWLAWYQQKPGKAPKLLIYKASSLESGVPSRFSGSGSGTEFTLTISSLQPDDFATYYCQQYGSFPITFGGGTKVEIK
VH 2: QVQLVQSGAEVKKPGASVKVSCKASGYTFTDYVVHWVRQAPGQGLEWMGYINPYNDGTKYNEKFKGRVTMTRDTSISTAYMELSRLRSDDTAVYYCARDYRYEVYGMDYWGQGTLVTVSS
VL 2: DIVLTQSPASLAVSPGQRATITCTASSSVNYIHWYQQKPGQPPKLLIYDTSKVASGVPARFSGSGSGTDFTLTINPVEANDTANYYCQQWRSYPLTFGQGTKLEIK
notes: also called C26-TriNKET-CD33
binding result [1]: binds
binding result [2]: binds

B2: parental anti-CD33 monoclonal antibody (antibody, V domains shown)
VH: B1 VH 2
VL: B1 VL 2
notes: also called parental monoclonal anti-CD33 antibody; parental anti-CD33 antibody
binding result [1]: binds

B3: mcFAE-C26.99 TriNKET (bispecific antibody, mouse IgG2c)
light 1: DIQMTQSPSTLSASVGDRVTITCRASQSISSWLAWYQQKPGKAPKLLIYKASSLESGVPSRFSGSGSGTEFTLTISSLQPDDFATYYCQQYGSFPITFGGGTKVEIKRADAAPTVSIFPPSSEQLTSGGASVVCFLNNFYPKDINVKWKIDGSERQNGVLNSWTDQDSKDSTYSMSSTLTLTKDEYERHNSYTCEATHKTSTSPIVKSFNRNEC
heavy 1: QVQLQQWGAGLLKPSETLSLTCAVYGGSFSGYYWSWIRQPPGKGLEWIGEIDHSGSTNYNPSLKSRVTISVDTSKNQFSLKLSSVTAADTAVYYCARARGPWSFDPWGQGTLVTVSSAKTTAPSVYPLAPVCGGTTGSSVTLGCLVKGYFPEPVTLTWNSGSLSSGVHTFPALLQSGLYTLSSSVTVTSNTWPSQTITCNVAHPASSTKVDKKIEPRVPITQNPCPPLKECPPCAAPDLLGGPSVFIFPPKIKDVLMISLSPMVTCVVVDVSEDDPDVQISWFVNNVEVHTAQTQTHREDYNSTLRVVSALPIQHQDWMSGKEFKCKVNNRALPSPIEKTISKPRGPVRAPQVYVLPPPAEEMTKKEFSLTCMIKGFLPAEIAVDWTSNGRTEQNYKNTATVLDSDGSYFMYSRLRVQKSTWERGSLFACSVVHEGLHNHLTTKTISRSLGK
light 2: DIQMSQSPASLSASVGETVTITCRASGNIYNYLAWYQQKQGKSPHLLVYDAKTLADGVPSRFSGSGSGTQYSLKISSLQTEDSGNYYCQHFWSLPFTFGSGTKLEIKRADAAPTVSIFPPSSEQLTSGGASVVCFLNNFYPKDINVKWKIDGSERQNGVLNSWTDQDSKDSTYSMSSTLTLTKDEYERHNSYTCEATHKTSTSPIVKSFNRNEC
heavy 2: EVQLQQSGAELVRPGALVKLSCKTSGFNIKDYFLHWVRQRPDQGLEWIGWINPDNGNTVYDPKFQGTASLTADTSSNTVYLQLSGLTSEDTAVYFCTRRDYTYEKAALDYWGQGASVIVSSAKTTAPSVYPLAPVCGGTTGSSVTLGCLVKGYFPEPVTLTWNSGSLSSGVHTFPALLQSGLYTLSSSVTVTSNTWPSQTITCNVAHPASSTKVDKKIEPRVPITQNPCPPLKECPPCAAPDLLGGPSVFIFPPKIKDVLMISLSPMVTCVVVDVSEDDPDVQISWFVNNVEVHTAQTQTHREDYNSTLRVVSALPIQHQDWMSGKEFKCKVNNRALPSPIEKTISKPRGPVRAPQVYVLPPPAEEMTKKEFSLTCMITGFLPAEIAVDWTSNGRTEQNYKNTATVLDSDGSYLMYSKLTVQKSTWERGSLFACSVVHEGLHNHLTTKTISRSLGK
notes: also called murine cFAE-C26.99 TriNKET; TA99 TriNKET (mcFAE-C26.99)
binding result [3]: binds
binding result [4]: binds
